In the domain aggregation screens of Martell et al. (2025):

Assay: soluble fraction after stress (log2 fold change); higher = more stays soluble; pooled small domains, quantitative proteomics
Settings: stress: pH 4
How it was run: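 Small protein domains from pooled custom libraries were exposed to pH 4, then quantified with high-throughput quantitative proteomics. The fold change in how much of each domain remains soluble is read as aggregation propensity. It is given as log2, with higher values meaning more stayed soluble.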

Sequence	soluble fraction (log2)
HMRMTTEQLMSFLKQHFPQVADNFTVRISDEGRLSVEMPVNDKHLRPGGTVSGPSMFALADVAFYLAILQ	-0.349
HMTFNLDVDGDDQVTALGDGLMIIRKLFGATFAGDALTNKAISPDATRTTDEIHAYIEKGITSGVLD	-0.288
HMGPAVGAIRVEGNKRVEPETVRTYLTFNVGDPYDLAKVDESLKALFATGLFQDVRIRREGNTVVIVVVEN	-1.07
HMKKYEIIFNDLKQSIVNGKYSNEERLPPEETLAKKYQTSRVPVQQALNALVGIGMVKRIAGSGTYVTY	-0.212
HMKHFNDEELDGFAGLKSDDYNEEQVELFRNIFEELHPDEIIEWTESLRRRGIEIPSSLKDEVVMMIN	-1.69
HMEPESTMIEISETLTNERLDRYLATKLPNVSRGGIQRLLREGNILVNGKKAKPTQHPVAGQKIEITWPNP	-0.11
HMHIVQEGDSLYGIARQYRITVEELRSLNALETADVIVPYQKLYV	-1.14
HMAQVDAVQQVLQAFPALRSGQSQHLSQVVAALRQRGILTVGTKTTAWFAQWASVFQLLPLQVPNRIRYQS	0.2
HMNEIEIHINKLFGKISDSKRKQELMQEITQNLNEKVSDLVSQGQTREQAVKKAIEDFGDIDDLKDELDN	-0.0968
HMIIDTELMTRVMKFGFSQADASDLVAQHSDDLLRTAISRVEARAESKGMTPLETPAGYFRWTLQDLVRNP	-2.02
HMKIAPRTAENQQLRKMILEIYTTSKKRVGPAKVRRMLLRDYGISISIGRVYRLMSTMNLPKMS	0.22
HMLFKGDTREENVILEFLSKNGTTSSDAIIKQTGLSASEFNQAITMLELKGLALNNGGEKWSL	-0.0366
HMSELADDPVYTALEKAADKAGLQLTVRILNDLADAVLKRGKKKLTAAQAGKVIARAESELAKSRID	≥ 0.43
HMRPNREKDMADLEKLAPFLLQMLTNYAQMTGDEKPLNAFITRFGYAAQIRDIQDFFMGPWHPA	-0.24
HMQVPFGFQRNPSTGTLEEKAEEQLIINQVLSLKNSGIGVSEISKRLGELSVSRIYRIINTAKKNAS	-0.107
HMSDVVFRINANGLNVSGLANGERVSVYDTTGKLVTTAVSTQDNGTLNLPLKQSGGIYIARTQSGVSFKFT	0.108
HMGDKVLIQTAQRLKKDLPFASIVSRFGGDEFLIFLPGISSTERVETIVKKTVFLFIAISTTLF	-0.0999
HMKSVILQLHPETLRWIREEAQADMADASVIQLLNDWELGTKKPTLSQVQKLSHETHIPFGYFFLKEKPA	-0.203
HMTQLPEVPVERGMVLEEVQSGWVGAVTRVEKSGGMHVVALEDRRGKSRSFRLGFGFLLEGQPIRLMPPAP	-0.882
HMSASTGTVSYKSGATTVWNSPSWHQVKRYVTFGDTVQLLGKTVDQNGATWYKVGDNQWIPELYLNVAG	-0.486
HMVANDQILNQYGISDREAEIIGLLIEGLSNQQIAKQLYISPNTVKTHIKNIYAKVGVNNRLQLFSLLK	-0.549
HMGGNKILTWKTDAATTRNQVPINERKEGLEISYKNEERNWVAEKYVGTSFSDDKWGVDYNWNQD	-0.559
HMETIHEMVNRLSSEGFIKNEDGIWYLRDRRGDGTKWLKNPFFESTGEKDAFALIDHLKVNDELLSKLRK	-0.433
HMVKIVWSKEGPYVGTRVRRYFSQGPVDGTVVMYAKPQKGDDVALWRISHDDGDEEDLEEQELRLAID	-1.69
HMTSLTSDEEQIINVLRAEESVYINALATKSKIPLQKLLGLLIQLEFKGLIHSLPGSHYKIV	-0.473

Sequence	soluble fraction (log2)
HMSDIYSLFERELGRTLSSYEYEIIGKWIEKGVSEDTIKRALKEAILNGVTNFKYIDKIIYDWSKN	-1.05
HMKQDFVYNGFVEAKGDDLMVQINYKGETYYVTEGESFGGFTVKSANKDKVVLSGQGGAETVLEFR	-0.536
HMPDKIDSAAQGILDKLIRNDGFMAVTDKSPPEAIYKLFGVSKKVFKQAIGSLYKNRLITIEDAGLRIIPQ	-0.214
HMPTMVAQINEIVQAKLPGSGLKDYTIRLVESQRDGVVVWVNGTRYLGVDEVAEPQVQALLKEAVAEWERS	-0.942
HMIHANGLTDRQEMILEFIRSYISENNYPPSVREIGKGVGLASSASVHNNMKKLASLGFLNWDTD	-0.194
HMKLKHANGNHPLTQQEKQNMIEEAAKHYGDYMTALGFDWKQDPNSSDTPMRVAKAFVNDLAEGVY	-0.348
HMNTGTTISYSDFRDRVASGTVKEVQISDDRITGVLKNDETFNTVPVGNDSGLTKLLDDNGVTYSGTP	0.212
HMNMGKRFKELRKERKFTQQQLADRIGLAPSAISSYESGARYPSYDVLIKYSKIFHVTTDYLLG	0.148
HMDDSSLFGRHTGIGFIVDDIDSGYQTLLAKGVSFEMPPTEQPWGGILALMKDPDGNIFYLD	-0.488
HMLLTASNYFKETKGINFSELPEALQKGHSFVIKSTENGTNWNAYSTSQNIQRVIDAYFSKLDEYLEKNQ	-0.202
HMSPSLVEAMRLRMYEMGLNQAKLSELLGVSPSRVSDYLTGRSEPTLKVARDISRKLNIDASIVLG	-0.0682
HMEPEYIGELEKRIKKLKTHTYSSIDRLMKSISKKYKITTQVLHDDFKNKHNEIPDEWVKQF	0.22
HMIVKQPDIRKQELLDIGVRLYFEAGEKGVSIQQVVKQAGVATGLFYYYFSSKDAFLDEALNDYID	-0.0638
HMSFFNGNQMKILRKKLQLNQEEMGEKLGIKKSYVSQLENNRKEITEEIDQILQELEQEYQDKM	-0.0582
HMVPTATVGENTSTLPVRQLPGGPVLVVLVRGDIVLPLPGHAFQNGDVWREISTVNGVIGWVPDEFLDY	-1.3
HMDYHTIQTGDKGDEVLRLQQALAEYGYYEGDLDGRFGQQTRRAVERFQYSHGLTADGIAGRNTLSVLYD	-0.051
HMGNSRNDQDLQTQIIKILAEGPASSRTLIETLTIEDEAALLKTLKRLLMNKKISLTPSNLYKL	-0.66
HMTIDNPESQKIMDMVPFFFQSRNYDEAIEALTYVIEQEPQFSEAYNKRATFYFMMGDLENSMKDIEITLA	-0.568
HMKSKNRLTKSYLDSIPGVGRKRKSILLRYFGSIDQIKRASSEDIANVPGIGKITSDLVYNYFNQ	-0.23
HMGLQLTPVRRRVLEILLHEHRALGAYDILDKLRSEGLGSQPPVAYRALDFLVTHGFAHKIERLNAF	-0.0897
HMKESRLFRILYYLLQHKKATAPELAEEFEVSVRTIYRDIDYISSAGVPIYATQGKDGGIAILDSF	-0.81
HMTDLNDTQIKILELLSADASLSAAKMAGQLGIAGRNVEANIKKLKEKGILIRHGSPKSGYWEIVN	0.0328
HMDNEIMYPIQINGKVRAELFVSTERAMDKQYVLEQAKANEKIQGYLEGNRLVKEIFVPKRIVNLVIAP	0.184
HMATPEINNLGRLRNAINQSNVNWHQIIKRLQNEYPNNWRQILIAIDRHDLLFRYDVENYIKYG	-0.855
HMEGTEILVNIRKGMTKEEIASLLVSKGLVEDKNTFLVQTALYTSDRYPIQPGSYTLNTAQTPEEMLAVMT	-0.073

Sequence	soluble fraction (log2)
HMNKETYIDALERKLWDRLDPDQLRDIISYYKDYFAMEAAKGISEEETIRKLGDPALLAKSILAAE	-0.145
HMETLKEVPNLKGQQQEVAKQLLINAGLGVGKINIIEDSTIADGEVVTQSILPNTKVKKDTYVGFTVNKAP	0.22
HMTYKPAADFKPSDTSSLKEGMKVEHPKFGFGTVMKMEEVGTERKARINFADFGEKTLLLSFAKLKIHEN	-0.361
HMNFIPGEKINLKIVQEGKEKNQGVGYLSDGTMVIVENGSQKLGQDVEVVVIKNIQSSAGKIVFGDISK	0.227
HMLVDWNYLEGKRGVTTTPLTPSGKARFGDDVVNVLSDGVLVSTGTPVRVLQVLGNRVLVEPLDG	0.0163
HMNEDDQLLKVLLAEPLRLEELYNLDLKPQGPYNLQTWIMVHLTELERDGLIARFPDGRYGPAR	-1.57
HMTIGIGKSLDFNTSGEKAYRIYNFKGAYVGTFKASDMTSLKNEVQKSNVKAGAYMVRSLDGHVNRLIEIK	≥ 0.43
HMNPYQDSILLWKSFDTPLTNEDFMGLSKEELRIARNEIYAAYGRIFTSQDLIDYFNSKPWYQGTTPA	-0.883
HMANTLDPMDLKQIISLHLDGFSNRKIGATLGISRNTVNTYMRLFSVSDYALKELLTLDNATLDKLFPS	-0.603
HMSTRYVRTPAGQAEIQARVFKLSRPVRNLLLVINDSRSIDDWLVQVHGITADDVAMLRAEGLIAEVS	-0.214
HMNAEQLAQVRRQKIGFIFQDFRLFPEYTVRDNILIPFYLDHRAPDEQMLHKLTGILGIAGKLHSRPAQL	-0.0979
HMGMTAPIPGVVLKVSVLPGQKVERGDELLTIEAMKMFNVMRSPSSGTIATVHIKDGDRVVQGQPLVTFA	0.113
HMDEWFPVNDDYKFMVGDEVRTPDGLVKVVATHNDSATFYGKIITPIHDDVLKGETYEYRSYEAQVLA	-1.26
HMVNFKLIGNKIAEARKKVNISQAQLAQRLFISSQAVGKWERGESMPDIITFNRLAEILGVDLNYFSE	0.266
HMDDVIEVEGKVVEVLPNTKFIVELANSHKITAHISGKLRMNYIRIMKGDNVTVEMSPYDLTKGRIIWRS	-0.167
HMKFKDYYAALGIDRNADLEQIKKAYRKLARQYHPDVSKAPDAEARFKDAAEAYATLKNPEKRAAYDELGS	0.22
HMGGQFVKVEVIAQIFGVTVRRVQQLTQEGVVKTTEIPGEGRRYELVPTIKTYIQYLSDKAY	0.0375
HMDIFLPDVKGYDLIPSFRRHLPDIDVIAMTGYNTRALESAVRQQDVLFYMIKPFEASQLKEILEHLVK	-0.279
HMRGYGDRIRILRERAGITIEQLAERLGVAPYFIRRTELSEVYPTKPYIEALADVLNIDASYLARHI	-0.972
HMNYDPEEKITQIRTMLEIHSRIEFNEIITPATRRGEIIIIFLALLHMIKRGYIVVRQHRLFGDITIFARD	0.22
HMKSYTYNPNYLSDYNAYRLGIPLEALERLQLHRSTGRYVNSLSDFQSVTGISDSLKHSLSSSLRFPN	-0.564
HMSSGTAYATDAVNVRSGPGTSYTVLGYLSRGEKVTITGTVSNGWTQIQLPGNRLGYVSSAYLSASYPS	-0.115
HMSETEEWTVEGGQAGDRIDRHVAAMLGDDVSRSQVQQWIRAGRVTVNGRAVKPSDTVEEGDRVAVDLPEP	-0.397
HMRVTEVSYDKFLDMLSGGQVTVVELQENERELYFKAADENGAERIYSTGVFPDADLQKRLSESGVTF	-1.19
HMTDFSDLSFKYNSEEKDVLNSINLKINGGEMTSLVGHSGAGKTTILNLIPRFYEKSKGDISIDGQSIY	-0.172
